Measured values: paper PMC5338832 (PLoS Pathogens, 2017)

T1: T117v2 epitope-scaffold (synthetic construct (designed scaffold …))
T1 construct: also called T117v2 scaffold; scaffolded MPER construct; source: expressed and purified as previously described [35]
T1 chain: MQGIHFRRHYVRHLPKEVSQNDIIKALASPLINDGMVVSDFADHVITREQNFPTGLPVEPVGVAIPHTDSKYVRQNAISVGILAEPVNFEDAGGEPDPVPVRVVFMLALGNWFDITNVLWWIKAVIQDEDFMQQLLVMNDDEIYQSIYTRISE


Assays:
T117v2 epitope-scaffold [1] = molecular target: T1, T117v2 epitope-scaffold; test: SPR; ProteOn XPR36, GLC chip with amine-coupled capture antibody (Human Antibody Capture Kit) for ligand capture; 1x HBS-EP+ pH 7.4 with 1 mg/ml BSA; Langmuir model; Table 1 heads the IgGs as 'Analyte'; details: both partners purified
T117v2 epitope-scaffold [2] = molecular target: T1, T117v2 epitope-scaffold; test: SPR; details: both partners purified

Row | Binder | Kd (T117v2 epitope-scaffold [1]) [pM] | koff (T117v2 epitope-scaffold [1]) [s⁻¹] | kon (T117v2 epitope-scaffold [1]) [M⁻¹ s⁻¹] | Kd (T117v2 epitope-scaffold [2]) [pM] | koff (T117v2 epitope-scaffold [2]) [s⁻¹] | kon (T117v2 epitope-scaffold [2]) [M⁻¹ s⁻¹]
1 | 10E8 IgG mutant 3 (antibody, V domains shown, IgG; also called 10E8 mut 3; copies: 2 + 2) VH: EVQLVESGGGLVKPGGSLRLSCSASGFDFDNAWMTWVRQPPGKGLEWVGRITGPGEGWSVDYAAPVEGRFTISRLNSINFLYLEMNNLRMEDSGLYFCARTGKYYDFWSGYPPGEEYFQDWGRGTLVTVSS VL: SYELTQETGVSVALGDTVTITCEGDSLESHYASWYQKKPGQAPILLFYGDDNRPSGVPDRFSGDADGNEASLTIDGAQAEDDAEYYCSSRDKSGSRLSVFGGGTKLTVL | 379 | 0.000211 | 559000 |  |  | 
2 | 10E8 IgG mutant 1 (antibody, V domains shown, also called 10E8 mut 1; copies: 2 + 2) VH: EVQLVESGGGLVKPGGSLRLSCSASGFDFDNAWMTWVRQPPGKGLEWVGRITGPGEGWSVDYAAPVEGRFTISRLNSINFLYLEMNNLRMEDSGLYFCARTGKYYDFWSGYPPGEEYFQDWGRGTLVTVSS VL: SYELTQETGVSVALGQTVTITCQGDSLRSHYASWYQKKPGQAPILLFYGKNNRPSGVPDRFSGSASGNTASLTISGAQAEDDAEYYCSSRDKSGSRLSVFGGGTKLTVL | 11.2 | 4e-05 | 3.57e+06 |  |  | 
3 | 10E8 IgG mutant 5 (antibody, V domains shown, IgG; also called 10E8 mut 5; copies: 2 + 2) VH: EVQLVESGGGLVKPGGSLRLSCSASGFDFDNAWMTWVRQPPGKGLEWVGRITGPGEGWSVDYAAPVEGRFTISRLNSINFLYLEMNNLRMEDSGLYFCARTGKYYDFWSGYPPGEEYFQDWGRGTLVTVSS VL: SYELTQETGVSVALGRTVTITCRGDSLASHAASWYQKKPGQAPILLFYGKNNRPSGVPDRFSGSASGNRASLTISGAQAEDDAEYYCSSRDKSGSRLSVFGGGTKLTVL | 123 | 0.00016 | 1.3e+06 |  |  | 
4 | 10E8 IgG mutant 2 (antibody, V domains shown, IgG; also called 10E8 mut 2; copies: 2 + 2) VH: EVQLVESGGGLVKPGGSLRLSCSASGFDFDNAWMTWVRQPPGKGLEWVGRITGPGEGWSVDYAAPVEGRFTISRLNSINFLYLEMNNLRMEDSGLYFCARTGKYYDFWSGYPPGEEYFQDWGRGTLVTVSS VL: SYELTQETGVSVALGDTVTITCEGDSLESHYASWYQKKPGQAPILLFYGKNNRPSGVPDRFSGSASGNEASLTISGAQAEDDAEYYCSSRDKSGSRLSVFGGGTKLTVL |  |  |  | 16.4 | 4.6e-05 | 2.8e+06
